18 sequences from a protein production outcome set (Wang et al. 2014) can be followed below.

A short description of the series: label from the status in PepcDB records.
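Also: failed if final PepcDB status was selected cloned or expressed and not failed if soluble or beyond.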

For the sequence “SLLSYQHGYHAGNFADVIKHITLTRLLAYLTHKDKPLFYLETHSGRGIYDLKDKQSLKTEEYKEGINPVWLDRENLPSLFLEYISVIKQINLNSTLSYYPGSPYFAINQLRSQDRLYLCELHPTEYNFLLKLPHFNKKVYVNHTDGVSKLNALLPPPEKRGLIFIDPSYERKEEYKEIPYAIKNAYSKFSTGLYCVWYPVVNKAWTEQFLRKMREISSKSVRIELHLNPLINEGMTGCGLWIINPPYTFPSEIKLVLETLTTYFNPGSSSYMIESGSKLCHGL”, the protein production result was “not failed”.
Under “SLPMQHVHTSPVRDYRNRCARREGETVFQVVVEETDLRVTALAELATPMAAYVGELRAQLKVWMEFQPAFRHSLVPVEVPEGAPEVVRRMAHGARLVGVGPFAAVAGTIAQMVAERFVDVSPELIVENGGDLYLYSERDRVVGILPDPASGDMVGILVRAGTAPVSLCGSSARIGHSLSLGDGDLAVVRARDASLADAAATAFGNMLRRADDVAAVTERAAQLASIGIEGVYAQCGGRIGIWGDMELAVA” stands “not failed”; under “SLRLHAGVWGLKVRYEGSFEVSKTPEEVFEFLTDPKRFSRAFPGFKSVEVEDGSFTIELRLSLGPLRGDARVRASFEDLEKPSKATVKGSGRGAGSTLDFTLRFAVEPSGGGSRVSWVFEGNVGGLAASMGGRVLDSLARRMINDVISGVKRELGEA”, “not failed”; under “SLRPPLPPATPQEVQFVQHMLQHHAQALDLAAPMLERSQQRTVRSLALDIQLSQREQMRQMEAMLGRWGQPPGEPISPEHARMMGMASEAEVAGLSTLPVEQAERQFLRLMIRHHQGAVAMTLPMLDAAARPEVERLARQIVVTQRGEIRTMEGVLGRLDGEVPAAPMRPVEHGHGH”, “not failed”.
Take “SMLSRAKPAVGGESPHTDKRKKKGRKIPKLEDLLSQRDFTGAITLLEFKRHVGEQEDDTNLWIGYCAFHLGDYKRALEEYENATKEENCNPEVWVNLACTYFFLGMYKQAEAAGFKAPKSRLQNRLLFHLAHKFNDEKKLMNFHQNLQDIKEDQLSLASNSEIHLPLPPECWD”: the protein production entry is given as “failed”.
Under “SNKLYIGNLSPAVTADDLRQLFGDRKLPLAGQVLLKSGYAFVDYPDQNWAIRAIETLSGKVELHGKIMEVDYSVSKKLRSRKIQIRNIPPHLQWEVLDGLLAQYGTVENVEQVNTDTETAVVNVTYATREEAKIAMEKLSGHQFENYSFKISYIPDEEVSSPSPPQRAQRGDHSSREQGHAPGGTSQARQIDFPLRILVPTQFVGAIIGKEGLTIKNITKQTQSRVDIHRKENSGAAEKPVTIHATPEGTSEACRMILEIMQKEADETKLAEEIPLKILAHNGLVGRLIGKEGRNLKKIEHETGTKITISSLQDLSIYNPERTITVKGTVEACASAEIEIMKKLREAFENDMLAVNQQANLIPGLNLSALGIFSTGLSVLSPPAGPRGAPPAAPYHPFTTHSGYFSSLYPHHQFGPFPHHHSYPEQEIVNLFIPTQAVGAIIGKKGAHIKQLARFAGASIKIAPAEGPDVSERMVIITGPPEAQFKAQGRIFGKLKEENFFNPKEEVKLEAHIRVPSSTAGRVIGKGGKTVNELQNLTSAEVIVPRDQTPDENEEVIVRIIGHFFASQTAQRKIREIVQQVKQQEQKYPQGVASQRSK” stands “not failed”; under “SNSALYNVDAGHRAVIFDRFRGVQDIVVGEGTHFLIPWVQKPIIFDCRSRPRNVPVITGSKDLQNVNITLRILFRPVASQLPRIYTSIGEDYDERVLPSITTEILKSVVARFDAGELITQRELVSRQVSDDLTERAATFGLILDDVSLTHLTFGKEFTEAVEAKQVAQQEAERARFVVEKAEQQKKAAIISAEGDSKAAELIANSLATAGDGLIELRKLEAAEDIAYQLSRSRNITYLPAGQSVLLQLPQ”, “not failed”.
Regarding “SPAYQEDREEDTCTIGEREKTIATQRIKGFGVENPVLPESPPASMSSVMKNNPLYGDITLEEAMEERKKSPSWTIEEYDKHSVHTNLSGHLKENPNDLRFWLGDTYTPGFDTLLKKKKKRNKRSKLCHMGLILLLVASILVTIVTLSTIFS”, the protein production result is reported as “failed”.
As to “SPFDTGPELESQIRNQYGVDVHVVPVLDTLNEAETLDRVAMQAARTIGPLVDSNAIIGVAWGATLSAVSRHLTRKMTHDSIVVQLNGAGNMQTTGITYASDIMRRFGSAYGARVEQFPVPAFFDHASTKTAMWNERSVQRILDLQARMSIAIFGVGSVDSDYPSHVYAGGYLDEHDLTMLAADDVVGDVATVFFRSDGSSDGITLNERSTGPSHEQLRQVRRRICVVSGASKINGLQGALAAGLATDLILDEASARRLVSFNGH”, the protein production entry is “not failed”.
Under “SQEANYGALLRELCLTQFQVDMEAVGETLWCDWGRTIRSYRELADCTWHMAEKLGCFWPNAEVDRFFLAVHGRYFRSCPISGRAVRDPPGSILYPFIVVPITVTLLVTALVVWQSKRTEGIV” stands “failed”; under “SQEQAQTTDWRATLKTIRNGVHKIDTYLNAALDLLGGEDGLCQYKCSDGSKPFPRYGYKPSPPNGCGSPLFGVHLNIGIPSLTKCCNQHDRCYETCGKSKNDCDEEFQYCLSKICRDVQKTLGLTQHVQACETTVELLFDSVIHLGCKPYLDSQRAACRCHYEEKTDL”, “not failed”; under “SQFVLQDLQDATLGSLLSSLMQHCDPPQRKYPLEKGTPPPWWPTGNEEWWVKLGLPKSQSPPYRKPHDLKKMWKVGVLTAVINHMLPDIAKIKRHVRQSKCLQDKMTAKESAIWLAVLNQEESLIQQ”, “not failed”.
“SQSLKPEPFGRRAQAVETNKTLHEMKTRFLLFGETNQGCQIRINHPDTLQECGFNSSLPLVMIIHGWSVDGVLENWIWQMVAALKSQPAQPVNVGLVDWITLAHDHYTIAVRNTRLVGKEVAALLRWLEESVQLSRSHVHLIGYSLGAHVSGFAGSSIGGTHKIGRITGLDAAGPLFEGSAPSNRLSPDDANFVDAIHTFTREHMGLSVGIKQPIGHYDFYPNGGSFQPGCHFLELYRHIAQHGFNAITQTIKCSHERSVHLFIDSLLHAGTQSMAYPCGDMNSFSQGLCLSCKKGRCNTLGYHVRQEPRSKSKRLFLVTRAQSPFKVYHYQLKIQFINQTETPIQTTFTMSLLGTKEKMQKIPITLGKGIASNKTYSFLITLDVDIGELIMIKFKWENSAVWANVWDTVQTIIPWSTGPRHSGLVLKTIRVKAGETQQRMTFCSENTDDLLLRPTQEKIFVKCEIKSKTSKRKIR”: the protein production entry is listed as “failed”.
The value for “SQVDDWIVGLEVEIFTFDGKEYRGIVYTYDADANCVVLARKSQDSLKSDLRILKASLVKNINVLGRSNVDQLPQQLSPLNLEALKMREEQALQKARKDLARTGVGVSQQAQEIFDALCKTLPCQWEEDSIVIFENIKLKKPYRVEDLDEIEAVNRVKVVLENELQKLQRRNT” was “not failed”; that for “SSAQFDHVTVIKKSNVYFGGLCISHTVQFEDGTKKTLGVILPTEQPLTFETHVPERMEIISGECRVKIADSTESELFRAGQSFYVPGNSLFKIETDEVLDYVCHLE” was “failed”; that for “SSFQGPLDATVVVNLQSPTLEEKNEFPEDLRTELMQTLGSYGTIVLVRINQGQMLVTFADSHSALSVLDVDGMKVKGRAVKI” was “not failed”.
In the case of “SSHQPLSCLTEKEDSPSESTGNGPPHLAHPNLDTFTPEELLQQMKELLTENHQLKEAMKLNNQAMKGRFEELSAWTEKQKEERQFFEIQSKEAKERLMALSHENEKLKEELGKLKGKSERSSEDPTDDSRLPRAEAEQEKDQLRTQVVRLQAEKADLLGIVSELQLKLNSSGSSEDSFVEIRMAEGEAEGSVKEIKHSPGPTRTVSTGTSRSADGAKNYFEHEELTVSQLLLCLREGNQKVERLEVALKEAKERVSDFEKKTSNRSEIETQTEGSTEKENDEEKGPETVGSEVEALNLQVTSLFKELQEAHTKLSEAELMKKRLQEKCQALERKNSAIPSELNEKQELVYTNKKLELQVESMLSEIKMEQAKTEDEKSKLTVLQMTHNKLLQEHNNALKTIEELTRKESEKVDRAVLKELSEKLELAEKALASKQLQMDEMKQTIAKQEEDLETMTILRAQMEVYCSDFHAERAAREKIHEEKEQLALQLAVLLKENDAFEDGGRQSLMEMQSRHGARTSDSDQQAYLVQRGAEDRDWRQQRNIPIHSCPKCGEVLPDIDTLQIHVMDCII”, the protein production result is given as “failed”.
As for “SSNYPRCWNCGGPWGPGREDRFFCPQCRALQAPDPTRDYFSLMDCNRSFRVDTAKLQHRYQQLQRLVHPDFFSQRSQTEKDFSEKHSTLVNDAYKTLLAPLSRGLYLLKLHGIEIPERTDYEMDRQFLIEIMEINEKLAEAESEAAMKEIESIVKAKQKEFTDNVSSAFEQDDFEEAKEILTKMRYFSNIEEKIKLKKIPL”, the protein production result was “failed”.
